Measured values published in US20250186614A1, “COMPACT DRUG RESPONSIVE DOMAINS FOR REGULATION OF FUNCTION/ABUNDANCE AND DELIVERY OF POLYPEPTIDE PAYLOADS” (OBSIDIAN THERAPEUTICS, INC., priority 2022, published 2025).
Like-named read-outs stand apart in the source and are kept apart here.

Columns and labels:
[1] = Example 4: dose response of FKBP constructs 160-255, Ec50, Ec90 and fold change (raw and normalized to mCherry); assay type: cell-based; conditions: for FC (fold change): fold change during initial analysis
Procedure: Additional experiments were performed for constructs FKBP-160-292.

Jurkat cells = experiment: Tacrolimus dose response of FKBP13-AcGFP-mCherry constructs stably transduced into Jurkat cells, GFP MFI by flow cytometry; assay type: cell-based; set-up: Basal: unit not given here; conditions: for Fold Change: Jurkat cells, Table 13
In short: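 Jurkat E6-1 cells lentivirally transduced with FKBP13-AcGFP-mCherry constructs to 10-25% mCherry+ (day 5) were dosed with tacrolimus. GFP geometric MFI in mCherry+ cells was measured by flow cytometry and fitted to dose-response curves.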

[2] = FKBP constructs 160-255, not normalized, read-out: EC90
[3] = normalized to mCherry, read-out: EC90 (Norm)

| Molecule | EC90 [1, 2] | FC (fold change) [1] | EC90 [1, 3] | FC (Jurkat cells; tacrolimus, FIG. 38) | Peak (Jurkat cells; tacrolimus, FIG. 38) | Fold Change (Jurkat cells; tacrolimus) | also measured |
| --- | --- | --- | --- | --- | --- | --- | --- |
| FKBP-203: FKBP13 DRD-AcGFP construct of Table 10 (protein, Description of sequence: Construct Name: FKBP-203; Mutation(s): Q72R Q84E A117W V85R DRD M54A P75L) HCPIKSRKGDVLHAHYTGKLEDGTEFDSSLPRNQLFVFSLGTGERIKGWDQGLLGMCEGEKRKLVIPSELGYGERGWPPKIPGGATLVFEVELLKIER | 657 nM | 66.0 | 747 nM |  |  |  |  |
| FKBP-204 (protein, Description of sequence: Construct Name: FKBP-204; Mutation(s): Q72R Q84E A117W V85R DRD M54A D90A) HCPIKSRKGDVLHAHYTGKLEDGTEFDSSLPRNQPFVFSLGTGERIKGWAQGLLGMCEGEKRKLVIPSELGYGERGWPPKIPGGATLVFEVELLKIER | 15200 nM | 37.9 | 15500 nM |  |  |  |  |
| FKBP-290: FKBP13 DRD-AcGFP construct of Table 10 (protein, Description of sequence: Construct Name: FKBP-290; Mutation(s): Q72R Q84E A117W V85R K120I E130F) HCPIKSRKGDVLHMHYTGKLEDGTEFDSSLPRNQPFVFSLGTGERIKGWDQGLLGMCEGEKRKLVIPSELGYGERGWPPIIPGGATLVFFVELLKIER |  |  |  | 92.89 | 3191 | 92.89 |  |
| FKBP-259: FKBP13 DRD-AcGFP construct of Table 10 (protein, Description of sequence: Construct Name: FKBP-259; Mutation(s): Q72R Q84E A117W V85R DRD E130K) HCPIKSRKGDVLHMHYTGKLEDGTEFDSSLPRNQPFVFSLGTGERIKGWDQGLLGMCEGEKRKLVIPSELGYGERGWPPKIPGGATLVFKVELLKIER |  |  |  |  |  | 103 | Basal (Jurkat cells; FIG. 40): 72.3; FC (Jurkat cells; FIG. 40): 90; Peak (Jurkat cells; FIG. 40): 6232; Basal (Jurkat cells; FIG. 47, BR1 (Biorep 1)): 70.7; FC (Jurkat cells; FIG. 47, BR1 (Biorep 1)): 95.97; At 10 uM (Jurkat cells; FIG. 47, BR1 (Biorep 1)): 6785; Basal (Jurkat cells; FIG. 47, BR2 (Biorep 2)): 77.3; FC (Jurkat cells; FIG. 47, BR2 (Biorep 2)): 84.76; At 10 uM (Jurkat cells; FIG. 47, BR2 (Biorep 2)): 6552; FC (Jurkat cells; tacrolimus, FIGS. 29 and 30): 103 |
| FKBP-292: FKBP13 DRD-AcGFP construct of Table 10 (protein, Description of sequence: Construct Name: FKBP-292; Mutation(s): Q72R Q84E A117W V85R K135Q) HCPIKSRKGDVLHMHYTGKLEDGTEFDSSLPRNQPFVFSLGTGERIKGWDQGLLGMCEGEKRKLVIPSELGYGERGWPPKIPGGATLVFEVELLQIER |  |  |  | 50.68 | 3797 | 50.68 |  |
| FKBP-256: FKBP13 DRD-AcGFP construct of Table 10 (protein, Description of sequence: Construct Name: FKBP-256; Mutation(s): Q72R Q84E A117W V85R DRD E137M) HCPIKSRKGDVLHMHYTGKLEDGTEFDSSLPRNQPFVFSLGTGERIKGWDQGLLGMCEGEKRKLVIPSELGYGERGWPPKIPGGATLVFEVELLKIMR |  |  |  |  |  | 78 | Basal (Jurkat cells; FIG. 41): 111; FC (Jurkat cells; FIG. 41): 65; Peak (Jurkat cells; FIG. 41): 6851; Basal (Jurkat cells; FIG. 43, BR1 (Biorep 1)): 110; FC (Jurkat cells; FIG. 43, BR1 (Biorep 1)): 71.46; At 10 uM (Jurkat cells; FIG. 43, BR1 (Biorep 1)): 7861; Basal (Jurkat cells; FIG. 43, BR2 (Biorep 2)): 125; FC (Jurkat cells; FIG. 43, BR2 (Biorep 2)): 59.04; At 10 uM (Jurkat cells; FIG. 43, BR2 (Biorep 2)): 7380; FC (Jurkat cells; tacrolimus, FIGS. 29 and 30): 78 |
| FKBP-291: FKBP13 DRD-AcGFP construct of Table 10 (protein, Description of sequence: Construct Name: FKBP-291; Mutation(s): Q72R Q84E A117W V85R E130N) HCPIKSRKGDVLHMHYTGKLEDGTEFDSSLPRNQPFVFSLGTGERIKGWDQGLLGMCEGEKRKLVIPSELGYGERGWPPKIPGGATLVFNVELLKIER |  |  |  | 53.37 | 3859 | 53.37 |  |
| FKBP-206 (protein, Description of sequence: Construct Name: FKBP-206; Mutation(s): Q72R Q84E A117W V85R DRD M54A K135Y) HCPIKSRKGDVLHAHYTGKLEDGTEFDSSLPRNQPFVFSLGTGERIKGWDQGLLGMCEGEKRKLVIPSELGYGERGWPPKIPGGATLVFEVELLYIER | 573 nM | 50.1 | 550 nM |  |  |  |  |
| FKBP-289: FKBP13 DRD-AcGFP construct of Table 10 (protein, Description of sequence: Construct Name: FKBP-289; Mutation(s): Q72R Q84E A117W V85R K120I K135Y) HCPIKSRKGDVLHMHYTGKLEDGTEFDSSLPRNQPFVFSLGTGERIKGWDQGLLGMCEGEKRKLVIPSELGYGERGWPPIIPGGATLVFEVELLYIER |  |  |  | 73.38 | 2659 | 73.38 |  |
| FKBP-257: FKBP13 DRD-AcGFP construct of Table 10 (protein, Description of sequence: Construct Name: FKBP-257; Mutation(s): Q72R Q84E A117W V85R DRD E137F) HCPIKSRKGDVLHMHYTGKLEDGTEFDSSLPRNQPFVFSLGTGERIKGWDQGLLGMCEGEKRKLVIPSELGYGERGWPPKIPGGATLVFEVELLKIFR |  |  |  |  |  | 65 | Basal (Jurkat cells; FIG. 41): 98; FC (Jurkat cells; FIG. 41): 59; Peak (Jurkat cells; FIG. 41): 5501; Basal (Jurkat cells; FIG. 43, BR1 (Biorep 1)): 107; FC (Jurkat cells; FIG. 43, BR1 (Biorep 1)): 59.79; At 10 uM (Jurkat cells; FIG. 43, BR1 (Biorep 1)): 6397; Basal (Jurkat cells; FIG. 43, BR2 (Biorep 2)): 118; FC (Jurkat cells; FIG. 43, BR2 (Biorep 2)): 50.39; At 10 uM (Jurkat cells; FIG. 43, BR2 (Biorep 2)): 5946; FC (Jurkat cells; tacrolimus, FIGS. 29 and 30): 65 |
| FKBP-205 (protein, Description of sequence: Construct Name: FKBP-205; Mutation(s): Q72R Q84E A117W V85R DRD M54A L104V) HCPIKSRKGDVLHAHYTGKLEDGTEFDSSLPRNQPFVFSLGTGERIKGWDQGLLGMCEGEKRKVVIPSELGYGERGWPPKIPGGATLVFEVELLKIER | 183 nM | 30.1 | 184 nM |  |  |  |  |
| FKBP-207 (protein, Description of sequence: Construct Name: FKBP-207; Mutation(s): Q72R Q84E A117W V85R DRD M54A I136V) HCPIKSRKGDVLHAHYTGKLEDGTEFDSSLPRNQPFVFSLGTGERIKGWDQGLLGMCEGEKRKLVIPSELGYGERGWPPKIPGGATLVFEVELLKVER | 311 nM | 35.4 | 302 nM |  |  |  |  |
| FKBP-288: FKBP13 DRD-AcGFP construct of Table 10 (protein, Description of sequence: Construct Name: FKBP-288; Mutation(s): Q72R Q84E A117W V85R K120I) HCPIKSRKGDVLHMHYTGKLEDGTEFDSSLPRNQPFVFSLGTGERIKGWDQGLLGMCEGEKRKLVIPSELGYGERGWPPIIPGGATLVFEVELLKIER |  |  |  | 30.10 | 3718 | 30.1 |  |
